Assay results from patent US20160046928A1 (Bicycle, published 2016).
Starred links: 1 amine or outer side, 2 acyl side, 3 side chain; linkers in the order of their positions; H or OH if unused. Positions of bridges follow the written chain, without caps; N, C: chain ends. Non-standard residues stand in square brackets, D forms with d. TBMB = c1c(C[*:1])cc(C[*:3])cc1C[*:2]; NMeR = CN[C@@H](CCCNC(=N)N)C(=O)O

Target: kallikrein (UniProt P03952 20-638, limits assumed)
Assay: cell-based or functional assay

Chain of kallikrein (P03952 20-638 limits assumed): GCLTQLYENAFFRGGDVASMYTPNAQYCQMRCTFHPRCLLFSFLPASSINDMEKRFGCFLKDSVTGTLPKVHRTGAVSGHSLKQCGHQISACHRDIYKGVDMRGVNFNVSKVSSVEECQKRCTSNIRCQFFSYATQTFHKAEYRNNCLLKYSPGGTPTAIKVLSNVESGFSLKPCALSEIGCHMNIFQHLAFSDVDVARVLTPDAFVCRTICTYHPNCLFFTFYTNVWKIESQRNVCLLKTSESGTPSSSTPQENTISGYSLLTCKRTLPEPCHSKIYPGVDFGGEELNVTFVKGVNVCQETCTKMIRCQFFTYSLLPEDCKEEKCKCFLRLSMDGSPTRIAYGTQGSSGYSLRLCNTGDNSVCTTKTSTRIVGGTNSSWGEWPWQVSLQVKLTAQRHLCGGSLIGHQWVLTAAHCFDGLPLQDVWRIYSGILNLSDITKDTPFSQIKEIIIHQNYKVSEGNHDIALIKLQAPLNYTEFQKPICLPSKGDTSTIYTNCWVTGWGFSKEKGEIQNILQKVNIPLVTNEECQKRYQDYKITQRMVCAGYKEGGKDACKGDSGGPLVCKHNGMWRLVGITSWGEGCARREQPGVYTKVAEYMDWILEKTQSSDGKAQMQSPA

Row | Binder | inhibition of kallikrein activity (IC50, substrate Z-Phe-Arg-amc, fluorescence) [µM]
1 | H-ACSDR[dF]RNCPADEALCG-OH (linker 2-9-16 via TBMB) [H-ACSDRfRNCPADEALCG-OH (D-Phe variant of PK15), TBMB conjugate] | 4
2 | H-ACSDRF[NMeR]NCPADEALCG-OH (linker 2-9-16 via TBMB) [H-ACSDRF-(NMeArg)-NCPADEALCG-OH (N-methyl-arginine variant of PK15), TBMB conjugate] | 3.1
3 | H-ACSDRFRNCPADEALCG-OH (linker 2-9-16 via TBMB; also: reduced peptide bond Y[CH2NH] between Phe6 and Arg7) [H-ACSDRF Y[CH2NH] RNCPADEALCG-OH (reduced peptide bond variant of PK15), TBMB conjugate] | 16.6
